{"source": "patent US20020160000A1", "about": "(Dana-Farber, published 2002)", "binders": {"B1": {"name": "murine ICOS-his fusion protein (receptor, UniProt Q9WVS0 21-144, looked up)", "chain": "EINGSADHRMFSFHNGGVQISCKYPETVQQLKMRLFREREVLCELTKTKGSGNAVSIKNPMLCLYHLSNNSVSFFLNNPDSSQGSYYFCSLSIFDPPPFQERNLSGGYLHIYESQLCCQLKLWL", "notes": "not shown: his tag"}, "B2": {"name": "soluble form of human B7-1 (ligand)", "chain": "VIHVTKEVKEVATLSCGHNVSVEELAQTRIYWQKEKKMVLTMMSGDMNIWPEYKNRTIFDITNNLSIVILALRPSDEGTYECVVLKYEKDAFKREHLAEVTLSVKADFPTPSISDFEIPTSNIRRIICSTSGGFPEPHLSWLENGEELNAINTTVSQDPETELYAVSSKLDFNMTTNHSFMCLIKYGHLRVNQTFNWNTTKQEHFPDN", "notes": "also called soluble forms of B7-1"}, "B3": {"name": "murine PD-1-Fc / murine PD-1.Ig fusion protein (Fc fusion, UniProt Q02242 25-169, looked up)", "chain": "LEVPNGPWRSLTFYPAWLTVSEGANATFTCSLSNWSEDLMLNWNRLSPSNQTEKQAAFCNGLSQPVQDARFQIIQLPNRHDFHMNILDTRRNDSGIYLCGAISLHPKAKIEESPGAELVVTERILETSTRYPSPSPKPEGRFQGM", "notes": "also called mouse PD-1; not shown: Fc/Ig portion"}, "B4": {"name": "soluble form of human B7-2 (ligand)", "chain": "APLKIQAYFNETADLPCQFANSQNQSLSELVVFWQDQENLVLNEVYLGKEKFDSVHSKYMGRTSFDSDSWTLRLHNLQIKDKGLYQCIIHHKKPTGMIRIHQMNSELSVLANFSQPEIVPISNITENVYINLTCSSIHGYPEPKKMSVLLRTKNSTIEYDGVMQKSQDNVTELYDVSISLSVSFPDVTSNMTIFCILETDKTRLLSSPFSIELEDPQPPPDHIP", "notes": "also called soluble forms of B7-2"}}, "key": {"[1]": {"target": "T1, human B7-4M (B7-4 membrane form) expressed on transfected COS or CHO cells (human, UniProt Q9NZQ7 19-290)", "T1 construct": "Cell-surface form on transiently transfected COS cells or on CHO transfectants; also called B7-4M (292); COS cells expressing B7-4M", "T1 sequence (Q9NZQ7 19-290)": "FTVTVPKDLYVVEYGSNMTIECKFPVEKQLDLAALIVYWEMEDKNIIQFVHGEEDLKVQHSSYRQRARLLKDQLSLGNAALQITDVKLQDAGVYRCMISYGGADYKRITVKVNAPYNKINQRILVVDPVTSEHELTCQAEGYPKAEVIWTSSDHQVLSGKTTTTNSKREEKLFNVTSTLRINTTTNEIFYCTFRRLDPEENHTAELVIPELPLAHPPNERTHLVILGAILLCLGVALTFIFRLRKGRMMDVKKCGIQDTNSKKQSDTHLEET", "assay": "FACS on B7-4M-transfected COS cells", "description": "COS cells were transfected with either vector DNA (pcDNAI), or an expression plasmid containing the B7-4M cDNA. After 72 hours, the transfected COS cells were detached by incubation in PBS containing 0.5 mM EDTA for 30 min. at 37° C.\nThe ability of COS cells expressing B7-4M to bind to various T cell receptors and antibodies was tested. […] The ability of COS cells expressing B7-4M to bind to IgG and murine ICOS-his fusion protein was also tested."}, "[2]": {"target": "T2, human PD-1-Fc (extracellular region of human PD-1 fused to hinge-CH2-CH3 of human immunoglobulin gamma 1) (human, UniProt P01857 99-330 = IgG part)", "T2 construct": "domain: hinge-CH2-CH3; also called PD-1-Fc (human Ig gamma1); Human PD-1 linked to IgG1", "T2 sequence (P01857 other isoform, or with tags, fused parts or gaps limits assumed)": "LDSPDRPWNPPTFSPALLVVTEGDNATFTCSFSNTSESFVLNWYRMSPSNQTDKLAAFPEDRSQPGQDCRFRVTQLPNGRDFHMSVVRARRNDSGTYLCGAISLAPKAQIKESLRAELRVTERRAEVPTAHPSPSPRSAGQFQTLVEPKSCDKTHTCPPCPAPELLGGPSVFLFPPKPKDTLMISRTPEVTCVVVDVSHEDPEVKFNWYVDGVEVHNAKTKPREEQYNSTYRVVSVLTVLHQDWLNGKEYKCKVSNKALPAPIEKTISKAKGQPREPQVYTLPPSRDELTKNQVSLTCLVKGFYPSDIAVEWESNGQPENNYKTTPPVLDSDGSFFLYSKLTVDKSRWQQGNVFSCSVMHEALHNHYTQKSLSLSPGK", "assay": "BIACORE, PD-1-Fc immobilized"}, "[3]": {"target": "T1, human B7-4M (B7-4 membrane form) …", "assay": "flow cytometry on human B7-4 CHO cells"}, "[4]": {"target": "T3, soluble human B7-4.Ig / B7-4-Fc fusion protein (Example 11) (human, UniProt Q9NZQ7 19-238)", "T3 construct": "not shown: Fc/Ig portion", "T3 sequence (Q9NZQ7 19-238)": "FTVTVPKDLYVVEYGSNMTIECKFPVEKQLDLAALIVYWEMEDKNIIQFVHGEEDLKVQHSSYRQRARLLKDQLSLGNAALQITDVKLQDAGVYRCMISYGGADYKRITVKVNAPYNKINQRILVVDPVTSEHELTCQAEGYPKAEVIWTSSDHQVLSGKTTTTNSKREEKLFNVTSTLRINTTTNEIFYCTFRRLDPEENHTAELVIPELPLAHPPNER", "assay": "BIACORE, PD-1-Fc immobilized, concentrated COS cell medium injected"}}}
{"binder": "B1", "values": [{"measurement": "binding result", "setting": "[1]", "result": "no binding"}]}
{"binder": "B2", "values": [{"measurement": "binding result", "setting": "[2]", "result": "no binding"}]}
{"binder": "B3", "values": [{"measurement": "binding result", "setting": "[3]", "result": "binds"}, {"measurement": "binding result", "setting": "[4]", "result": "binds"}]}
{"binder": "B4", "values": [{"measurement": "binding result", "setting": "[2]", "result": "no binding"}]}
